In PMC7274078, “Brain Endothelial Cells Regulate Glucagon-Like Peptide 1 Entry Into the Brain via a Receptor-Mediated Process” (Frontiers in Physiology, 2020):

Tests used:
[1] = Circulating GLP-1-FAM / exendin-4-FAM uptake by the brain; assay type: in vivo; conditions: rat, systemic infusion 30 pmol/kg/min for 10 min; cerebellum, cortex, hippocampus, hypothalamus, brain stem; FAM fluorescence in lysates corrected for vascular space with Dextran-TRITC; n = 7 (GLP-1-FAM), n = 6 (exendin-4-FAM)
Experimental: Rats received a systemic infusion of either saline or exendin-(9-39) (GLP-1 receptor antagonist, 30 nmol/kg/min, Abcam, Cambridge, United Kingdom) via the jugular vein catheter for 20 min (Figure 1A). In the last 10 min, rats also received 30 pmol/kg/min of either GLP-1-FAM (AnaSpec, Fremont, CA, United States) or exendin-4-FAM (AnaSpec, Fremont, CA, United States) together with Dextran-TRITC (Sigma-Aldrich, St. Louis, MO, United States) (70 kD, vascular space marker, 30 pmol/kg/min). […] After collecting plasma samples, rats were sacrificed via anesthetic overdose and various brain regions (cerebellum, cortex, hippocampus, hypothalamus, and brain stem) collected, homogenized and lysed in lysis buffer. Fluorescence from TRITC and FAM were measured in both plasma and brain lysates. Protein concentrations were determined in the brain lysates. Brain uptake of GLP-1-FAM and exendin-4-FAM were calculated using the following formula:
Tissue fluorescence [FAM]/Tissue weight (μg)−TissueFluorescence [TRITC]/Weight(μg)/PlasmaFluorescence [TRITC]/200(μL)×Plasma Fluorescence [FAM]/200μL
FIGURE 1 GLP-1 and GLP-1 analog exendin-4 enter various brain regions via GLP-1 receptor-mediated process. (A) Protocol. […]

[2] = system: Rat brain microvascular endothelial cells (RBMECs); assay: Endothelial cell uptake of GLP-1-FAM; assay type: cell-based; conditions: confocal fluorescence
Experimental: Rat brain microvascular endothelial cells (RBMECs; Cell Applications, San Diego, CA, United States) were cultured on a cover slip in rat brain endothelial cell growth medium. After reaching confluency, cells were pre-treated with vehicle (PSS buffer), exendin 9-39 (10 nM) or H89 (Sigma-Aldrich, St. Louis, MO, United States) (10 μM) for 30 min or forskolin (Sigma-Aldrich, St. Louis, MO, United States) (10 μM) for 5 min. Cells were then incubated with GLP-1-FAM at either 10, 100 or 1,000 pM for 3 min at 37°C. DAPI was used to stain the nucleus. After fixation and washing three times with cold TBST (5 min each time), cell images were captured using confocal microscope and fluorescence intensity measured using ImageJ software^1. FAM signal from surface binding of FAM was examined by incubating cells with GLP-1-FAM at 4 or 37°C for 3 min, or free FAM (10, 100, and 1,000 pM) at 37°C for 3 min.
FIGURE 5 GLP-1 uptake by RBMECs is GLP-1 receptor and PKA dependent. RBMECs were pretreated with vehicle (PSS buffer, A,E,I), Exendin 9-39 (10 nM, B,F,J) or H89 (10 μM, C,G,K) for 30 min. Cells were then incubated with GLP-1-FAM at 10, 100 pM or 1 nM for 3 min. DAPI was used to stain the nucleus. Images were captured using confocal microscope. Fluorescence density was analyzed using ImageJ. (D,H,L) Quantitative analysis (n = 3, *p < 0.01, vs. vehicle, Student’s t test). GLP-1R – GLP-1 receptor.
FIGURE 6 cAMP agonist increases GLP-1 uptake by RBMECs. (A) RBMECs were incubated with GLP-1-FAM at 10 pM for 3 min with or without 10 μM forskolin. DAPI was used to stain the nucleus. Images was captured using confocal microscope. Fluorescence density was analyzed using ImageJ. (B) quantitative analysis of the images (n = 6, *p < 0.05, vs. vehicle, Student’s t test).

[3] = system: RBMEC and astrocyte barrier; assay: Trans-endothelial GLP-1 transport (Transwell artificial BBB); assay type: in vitro ADME, rat
Experimental: The trans-endothelial GLP-1 transport was examined using a Transwell system that mimics the BBB in that RBMECs were co-cultured with astrocytes as illustrated in Figure 7A and previously described ([Gaillard et al., 2001]). Briefly, astrocytes (Thermo Fisher Scientific, Waltham, MA, United States) were seeded on the bottom and RBMECs were then seeded onto the top of the Transwell insert (6.5 mm diameter, 1 μm pore size, polyester membrane; Corning, Corning, NY, United States). Trans-endothelial electrical resistance was monitored using a volt-ohmmeter (EVOM; WPI, Sarasota, FL, United States) and EndOhm chamber (EndOhm; WPI). When the trans-endothelial electrical resistance reached its peak, the insert with double cell layers was washed twice at 37°C with PBS buffer. […] The amount of GLP-1-FAM or inulin-FITC transported to the lower chamber was determined by measuring FAM and FITC fluorescence in the lower chamber at 5, 10, and 30 min. Inulin-FITC transport was used to correct for paracellular transport and the amount of trans-endothelial transport of GLP-1-FAM was calculated using the formula:
Transcellular transport (%)=Fluorescence [FAM]/Reference [FAM]×100−Fluorescence [FITC]/Reference [FITC]×100
Reference refers to fluorescence in the lower chamber at the specified time point when the Transwell inserts had no cells seeded. To determine if this trans-endothelial transport is dose-dependent, 10, 100, and 1,000 pM GLP-1-FAM or inulin-FITC (with DDP-4 inhibitor) was loaded into the upper chamber, the amount of GLP-1-FAM or inulin-FITC in the lower chamber was determined at 10 min, and trans-endothelial transport of GLP-1 was calculated.
FIGURE 7 Trans-endothelial transport of GLP-1 is a GLP-1 receptor-mediated process. […] GLP-1-FAM or inulin-FITC transport to the lower chamber was determined by measuring FAM and FITC fluorescence in the lower chamber. […]

[4] = in vivo; cited from earlier work
Source text: Peptides cross the BBB via transcellular vesicular pathways that may be either constitutive or regulated. […] This is similar to leptin ([Banks et al., 1996]) and insulin ([Gray et al., 2014]; [Meijer et al., 2016]), two appetite regulating hormones secreted peripherally that enter into the brain. || The central actions of GLP-1 and its analogs have been well recognized. GLP-1 analogs have been repeatedly shown to cross the BBB, stimulate brain GLP-1 receptors, and modulate mitochondrial function, protein aggregation, neuroinflammation, synaptic plasticity, learning and memory in experimental models of Parkinson's and Alzheimer's disease ([Athauda and Foltynie, 2016]). Our observation that peripherally administrated GLP-1 and exendin-4 rapidly enter various brain regions is consistent with prior findings that peripherally injected GLP-1 analogs can easily enter the brain ([[…] and Akers ...

DPP4 = conditions: no reference given; cited from earlier work
Source text: GLP-1 receptors are expressed in multiple brain areas in rodents, primates, and humans and they are involved in learning, neuroprotection and regulation of appetite and satiety ([Wei and Mojsov, 1995]; [During et al., 2003]; [Richards et al., 2014]). Global knockout of the GLP-1 receptor in mice impairs synaptic plasticity and memory formation ([Abbas et al., 2009]). […] Indeed, pre-treatment of animals w ...

With GLP-1-FAM: FAM-labeled GLP-1 (AnaSpec) the “FAM-labeled peptide detected in brain regions (brain uptake)” value [1] was “detected in various brain regions”, the RBMEC uptake ([2]; 10, 100 and 1,000 pM, 3 min at 37°C, ImageJ) was “actively took up” and the “RBMEC uptake at 4°C” value ([2]; 3 min at 4°C) was “did not take up”. For the same substance, the “concentration dependence of trans-endothelial transport” value ([3]; Transwell, 10, 100 and 1000 pM, 10 min, with DPP4 inhibitor, n = 6, p = 0.37) was “does not appear to be concentration dependent” and the “transport across the RBMEC and astrocyte barrier, time course” value ([3]; Transwell, RBMECs co-cultured with astrocytes, 100 pM in upper chamber with DPP4 inhibitor, lower chamber fluorescence at 5, 10 and 30 min, corrected for paracellular transport with inulin-FITC, n = 7) was “crossed the barrier in a time-dependent fashion”.

In the case of exendin-4, the “time to detection in the brain after intravenous injection” value [4] is given as at most 5 min, the half-life (DPP4) is given as 1.5 h and the “stability to DPP4” value (DPP4) is given as “DPP4 resistant”.
